Measurements as given in patent US20090035322A1 (Regeneron, published 2009).
Substitutions are numbered along the chain they refer to. Like-named read-outs stand apart in the source and are kept apart here.

Legend:
human CD20 [1] = target: T1, human CD20 (human, UniProt P11836 1-297); test: cell-based or functional assay
T1 sequence: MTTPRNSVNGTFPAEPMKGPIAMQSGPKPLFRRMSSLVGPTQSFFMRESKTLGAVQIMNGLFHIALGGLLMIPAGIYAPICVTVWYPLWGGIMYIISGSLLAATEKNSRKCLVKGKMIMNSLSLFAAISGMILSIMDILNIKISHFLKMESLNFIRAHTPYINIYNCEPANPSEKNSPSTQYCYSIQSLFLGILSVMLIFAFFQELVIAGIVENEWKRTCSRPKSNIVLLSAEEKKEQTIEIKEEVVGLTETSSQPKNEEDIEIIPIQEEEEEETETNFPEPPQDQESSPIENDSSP

human CD20 [2] = target: T1, human CD20; test: cell-based or functional assay; remark: listed apart in the source
human CD20 [3] = target: T1, human CD20; test: cell-based or functional assay; remark: listed apart in the source
human CD20 [4] = target: T1, human CD20; test: cell-based or functional assay; remark: listed apart in the source
human CD20 [5] = target: T1, human CD20; test: flow cytometry, hCD20-transfected MG87 cells
Procedure: Briefly, parental MG87 and human CD20-transfected MG87 cells were incubated for 30 min at 4° C. with each of the 15 human antibodies and the two control antibodies, followed by incubation with PE-conjugated anti-human IgG antibody. Binding was assessed by flow cytometry. Fluorescence intensities were compared with binding to the parental cell line and control isotype-matched sample.

[6] = target: T2, mutant human CD20 #1 (Y77F) (human, UniProt P11836 1-297); test: FACS, mutant-hCD20 MG87 cells; 100%=best antibody
T2 construct: Human residues replaced by mouse residues; stably expressed on MG87 cells
T2 sequence: T1 sequence with Y77F
Procedure: (§1) Briefly, approximately 1×10⁶ cells from each stably transfected cell line expressing a mutant human CD20 were collected and incubated with each anti-human antibody, at 10 μg/ml, on ice for 1 hr, followed by incubation with APC-conjugated goat anti-human IgG (Jackson Immunolabs), at 10 μg/ml, on ice for 45 min. For each antibody, binding to each mutant human CD20 was assessed by flow cytometry.

[7] = target: T3, mutant human CD20 #2 (N163D) (human, UniProt P11836 1-297); test: FACS, mutant-hCD20 MG87 cells; 100%=best antibody
T3 construct: Stably expressed on MG87 cells
T3 sequence: T1 sequence with N163D
Procedure: as §1

[8] = target: T4, mutant human CD20 #3 (A170S, P172S) (human, UniProt P11836 1-297); test: FACS, mutant-hCD20 MG87 cells; 100%=best antibody
T4 construct: Stably expressed on MG87 cells
T4 chain: T1 sequence with A170S, P172S
Procedure: as §1

[9] = target: T5, mutant human CD20 #4 (N166D) (human, UniProt P11836 1-297); test: FACS, mutant-hCD20 MG87 cells; 100%=best antibody
T5 construct: Stably expressed on MG87 cells
T5 sequence: T1 sequence with N166D
Procedure: as §1

[10] = target: T6, mutant human CD20 #6 (Y77F, N166D) (human, UniProt P11836 1-297); test: FACS, mutant-hCD20 MG87 cells; 100%=best antibody
T6 construct: Stably expressed on MG87 cells
T6 chain: T1 sequence with Y77F, N166D
Procedure: as §1

[11] = target: T7, mutant human CD20 #7 (Y77F, N163D) (human, UniProt P11836 1-297); test: FACS, mutant-hCD20 MG87 cells; 100%=best antibody
T7 construct: Stably expressed on MG87 cells
T7 chain: T1 sequence with Y77F, N163D
Procedure: as §1

[12] = target: T8, mutant human CD20 #8 (Y77F, N163D, N166D) (human, UniProt P11836 1-297); test: FACS, mutant-hCD20 MG87 cells; 100%=best antibody
T8 construct: Stably expressed on MG87 cells
T8 chain: T1 sequence with Y77F, N163D, N166D
Procedure: as §1

[13] = target: T9, mutant human CD20 #9 (N163D, N166D) (human, UniProt P11836 1-297); test: FACS, mutant-hCD20 MG87 cells; 100%=best antibody
T9 construct: Stably expressed on MG87 cells
T9 chain: T1 sequence with N163D, N166D
Procedure: as §1

[14] = target: T10, mutant human CD20 #10 (A157V) (human, UniProt P11836 1-297); test: FACS, mutant-hCD20 MG87 cells; 100%=best antibody
T10 construct: Stably expressed on MG87 cells
T10 sequence: T1 sequence with A157V
Procedure: as §1

B1: rituximab (RITUXAN, IDEC Pharmaceuticals Corp.) (antibody, V domains shown)
VH: QVQLQQPGAELVKPGASVKMSCKASGYTFTSYNMHWVKQTPGRGLEWIGAIYPGNGDTSYNQKFKGKATLTADKSSSTAYMQLSSLTSEDSAVYYCARSTYYGGDWYFNVWGAGTTVTVSA
VL: QIVLSQSPAILSASPGEKVTMTCRASSSVSYIHWFQQKPGSSPKPWIYATSNLASGVPVRFSGSGSGTSYSLTISRVEAEDAATYYCQQWTSNPPTFGGGTKLEIK
CDC, Daudi EC50 (human CD20 [1]): 0.84 nM | CDC, RL EC50 (human CD20 [1]): > 50 nM | % Cytotoxicity (CDC, Daudi), 0 hour (human CD20 [2]): 98.5% | % Cytotoxicity (CDC, Daudi), 1 hour (human CD20 [2]): 86.9% | % Cytotoxicity (CDC, Daudi), 6 hour (human CD20 [2]): 16% | % Cytotoxicity (CDC, Daudi), 0 hour (human CD20 [3]): 91.9% | % Cytotoxicity (CDC, Daudi), 1 hour (human CD20 [3]): 65.3% | % Cytotoxicity (CDC, Daudi), 6 hour (human CD20 [3]): 52.1% | % Cytotoxicity (CDC, Daudi), 0 hour (human CD20 [4]): 98.3% | % Cytotoxicity (CDC, Daudi), 1 hour (human CD20 [4]): 81.1% | % Cytotoxicity (CDC, Daudi), 6 hour (human CD20 [4]): 20.5% | Total Mean Fluorescent Intensity (human CD20 [5]): 2960

B2: 2F2 (antibody, V domains shown)
VH: EVQLVESGGGLVQPGRSLRLSCAASGFTFNDYAMHWVRQAPGKGLEWVSTISWNSGSIGYADSVKGRFTISRDNAKKSLYLQMNSLRAEDTALYYCAKDIQYGNYYYGMDVWGQGTTVTVSS
VL: EIVLTQSPATLSLSPGERATLSCRASQSVSSYLAWYQQKPGQAPRLLIYDASNRATGIPARFSGSGSGTDFTLTISSLEPEDFAVYYCQQRSNWPITFGQGTRLEIK
Percent of Binding to Mutant Human CD20 [6]: 60% | Percent of Binding to Mutant Human CD20 [7]: 30% | Percent of Binding to Mutant Human CD20 [8]: 70% | Percent of Binding to Mutant Human CD20 [9]: 51% | Percent of Binding to Mutant Human CD20 [10]: 1% | Percent of Binding to Mutant Human CD20 [11]: 1% | Percent of Binding to Mutant Human CD20 [12]: 0% | Percent of Binding to Mutant Human CD20 [13]: 4% | Percent of Binding to Mutant Human CD20 [14]: 79%
